# Experimental data as given in article PMC8303780, “Mutational Analysis of Redβ Single Strand Annealing Protein: Roles of the 14 Lysine Residues in DNA Binding and Recombination In Vivo”.
# T1: Redβ K36A (bacteriophage λ, UniProt P03698 1-261, K36A)
# T1 sequence: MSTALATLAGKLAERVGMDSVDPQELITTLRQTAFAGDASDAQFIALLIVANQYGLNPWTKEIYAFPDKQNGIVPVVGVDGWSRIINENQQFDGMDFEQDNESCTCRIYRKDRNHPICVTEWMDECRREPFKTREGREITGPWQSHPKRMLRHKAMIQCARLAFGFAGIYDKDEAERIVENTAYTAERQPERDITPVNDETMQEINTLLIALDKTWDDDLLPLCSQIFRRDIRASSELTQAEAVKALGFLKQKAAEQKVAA
# T2: Redβ K253A (bacteriophage λ, UniProt P03698 1-261, K253A)
# T2 sequence: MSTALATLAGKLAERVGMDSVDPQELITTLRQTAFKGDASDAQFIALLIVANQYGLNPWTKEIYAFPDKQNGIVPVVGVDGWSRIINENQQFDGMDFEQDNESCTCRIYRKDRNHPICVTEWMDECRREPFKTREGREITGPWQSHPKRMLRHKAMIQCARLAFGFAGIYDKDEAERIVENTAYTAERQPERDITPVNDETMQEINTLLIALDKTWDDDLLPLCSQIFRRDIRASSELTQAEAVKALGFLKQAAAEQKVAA
# T3: Redβ K11A (bacteriophage λ, UniProt P03698 1-261, K11A)
# T3 sequence: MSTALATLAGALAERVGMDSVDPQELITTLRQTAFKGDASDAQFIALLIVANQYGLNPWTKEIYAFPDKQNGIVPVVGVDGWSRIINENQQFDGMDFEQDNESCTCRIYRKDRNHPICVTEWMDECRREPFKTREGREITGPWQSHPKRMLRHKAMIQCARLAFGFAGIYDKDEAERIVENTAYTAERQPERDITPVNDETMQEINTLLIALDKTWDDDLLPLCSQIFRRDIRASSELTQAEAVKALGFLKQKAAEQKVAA
# T4: Redβ K132A (bacteriophage λ, UniProt P03698 1-261, K132A)
# T4 sequence: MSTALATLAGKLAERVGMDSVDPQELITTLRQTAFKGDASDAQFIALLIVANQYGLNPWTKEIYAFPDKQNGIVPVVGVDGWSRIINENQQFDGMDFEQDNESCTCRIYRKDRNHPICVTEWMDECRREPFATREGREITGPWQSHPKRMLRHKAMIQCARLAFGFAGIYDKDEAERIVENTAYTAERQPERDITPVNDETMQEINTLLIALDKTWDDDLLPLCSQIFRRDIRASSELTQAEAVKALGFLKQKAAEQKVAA
# T5: Redβ K148A (bacteriophage λ, UniProt P03698 1-261, K148A)
# T5 sequence: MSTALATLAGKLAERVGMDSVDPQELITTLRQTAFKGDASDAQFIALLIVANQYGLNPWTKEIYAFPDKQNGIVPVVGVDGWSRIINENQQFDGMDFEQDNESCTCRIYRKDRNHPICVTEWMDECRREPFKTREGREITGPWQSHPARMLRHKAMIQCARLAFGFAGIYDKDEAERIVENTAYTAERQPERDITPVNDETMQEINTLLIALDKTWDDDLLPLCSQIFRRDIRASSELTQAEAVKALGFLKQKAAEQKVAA
# T6: Redβ K172A (bacteriophage λ, UniProt P03698 1-261, K172A)
# T6 sequence: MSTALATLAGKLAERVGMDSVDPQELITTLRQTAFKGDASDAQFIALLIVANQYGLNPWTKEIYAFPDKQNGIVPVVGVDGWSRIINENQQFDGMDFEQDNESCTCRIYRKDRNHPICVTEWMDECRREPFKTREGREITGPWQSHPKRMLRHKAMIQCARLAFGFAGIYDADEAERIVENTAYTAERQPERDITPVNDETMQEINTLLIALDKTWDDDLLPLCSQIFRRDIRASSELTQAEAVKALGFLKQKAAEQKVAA
# B1: annealed duplex of Cy3 and Cy5 50-mers, strands added sequentially (dsDNA)
# DNA 1: GCGGATGGCTTAGAGCAGAATCGCCCTGCATAGCTCGATTTTTGCGGATG
# DNA 2: CCATCCGCAAAAATCGAGCTATGCAGGGCGATTCTGCTCTAAGCCATCCG
# Key:
# Experiment in all cases: EMSA; strands added sequentially; Anisotropy: 50 mM Tris-HCl pH 7.5, 1 mM DTT, 0.1 mg/mL BSA, 10 nM FAM48, 23 °C (Kd per monomer); gel assay: 10 µM Redβ, 50 µM nt of each oligo, PBS, 37 °C, 1% agarose at 22 °C
# Conditions in all cases: protein: recombinant; tags: 6xHis removed by thrombin; residual N-terminal GSH; label: 5'-Cy3 and 5'-Cy5; complementary 50-mers; annealed by protein
# Redβ K36A = target: T1, Redβ K36A
# Redβ K253A = target: T2, Redβ K253A
# Redβ K11A = target: T3, Redβ K11A
# Redβ K132A = target: T4, Redβ K132A
# Redβ K148A = target: T5, Redβ K148A
# Redβ K172A = target: T6, Redβ K172A
binder,measurement,setting,value
B1,binding result,Redβ K36A,binds
same,binding result,Redβ K253A,binds
same,binding result,Redβ K11A,binds
same,binding result,Redβ K132A,no binding
same,binding result,Redβ K148A,no binding
same,binding result,Redβ K172A,no binding
